# Experimental data published in the supplement of paper PMC9170038.
# System: K4 kissing-loop RNA reporter
# Test: apparent KD of K4 kissing-loop reporter; higher = weaker reporter binding
# Settings: Eterna round: R107; input ligand: arginine 13.2 mM
# Protocol: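 RNA-MaP round R107: designed RNA switches with theophylline, tryptophan, arginine or FMN aptamers are transcribed on-chip within common flanks. They are titrated with a labelled K4 kissing-loop RNA reporter in RNA-MaP buffer (100 mM Tris pH 7.5, 80 mM KCl, 4 mM MgCl2), without ligand or with the indicated ligand. Median apparent KD per design.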
# 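Note: bound reporter read as fluorescence of individual clusters on recovered sequencing chips by microscopy, with normalized cluster intensities fitted with a binding model.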
row,Sequence,apparent KD of K4 kissing-loop reporter
1,AAGUACACGAUAGUGUACACCUAGUGAUGUUAGGAUAUGCAGAUAUGCAGAAGGAACGAGUCAUCUGACAAUAGUCGGAUGACAA [FmnAX 8 #OpenEnded #K4Early],70.2 nM
2,ACUGUACCGGGAAGGAGCGUGAAUGAGAAUGGAUAUAGUGAUGUUAUGUAUACGAACGAAUCGCAGGUAGGUCGCCCGGAUCCCU [SSArgB.aC],322 nM
3,AAGGGCUAGGCGGCCGCCACUGGUUGUGAACACAUACGAGCCAGUGAUGUUGGUAUUGUGUGCGGCAGGACCGGGCCUAGCCGAA [Exclusion - Tryptophan B (Freestyle 23)],299 nM
4,AGACUACUGACAGGAUAUAACAUCCUGGUCGUAUACCGAAAGGUAUACGAUUUCCUUCUAGUGAUGUUAGAAGGGUCGGUAGUCA [Omei KL FMN B Exc B v14],78 nM
5,AAAGUGUCAGCACGAGUGAUGUUCGACGAUACCAGCCUCGAUAGAGGCCCUUGGCAGCGUAAACCAAGGGCUGGCACAAAAUAAA [#SwitchBubble 6 #K4Early],975 nM
6,GUAUAAAUAUAAGGAUAUGCAGGGAAAGUAAGAAUGGGUUAGUUGAACUUUAGUGAUGUUGAGGAAGCAGAAGGUGUAUAUGUGU [FMN B same state],272 nM
7,GGAUAGGACAGAGGAUAUCCUUGAGGCAAGAAACUUGUCUCUAAAAGGAUGAACCUAGUGAUGUUAGGAGAAGGCUGUCCUAUCG [FmnBX 13 - #SwitchBubble #StaticStem #Palindromic],90 nM
8,CCUUCUCUUGAUAGUGAUGUUAUCAAGGGCAAGGAUAUCAUCUCAAUGAGAAGGUGUCCUUGAUAACAUGGAGGUCUGAAACAGA [Omei KL FMN A Exc C v4],165 nM
9,AUUUAUGUAUCAGGAUAUUAGUGAUGUUUGUUUUUGUUAGUGAUGUUGAUAUUUGUUUUAUGUAUUUAAGAAGGGAUUGAGAUGU [wwewmullin],18.5 nM
10,AUGCUUAUAAUAACACUAUAUACAACUGAAGGAGCGACAAUAAAGUCAGGUAGGUCGCAGAAUAAAUGAGUGAUGUUCAUUUUUA [JR_ExcArginiA_Sub010],138 nM
11,AAGUGUGUGGCGGCCGCCACUAGAAUCCAGUGAUGUUGGAGAUAUCUCGUAAGAGAUAUCCGCCAUAGGACCGGGCCAUAUAGAA [Same State - Tryptophan B (Freestyle 15)],720 nM
12,UCGGACGCGCACCUAGGCCAAUCCACUGCGAAGGAUAUGCGCGCCAGCAGAAGGUCGUUUUAUGAGUGAUGUUUAGAAACAGCGU [theeternabot_exclusion_KL_FMN_A_25],250 nM
13,GGGAUGUAGUGAUGUUAUAUUAGAUGUAGACGAGGACCGGUACGGCCGCCACUCGUGAUGGCUGCUAGCACGUUUCGAUGUUUGC [ExTryptoA.Cr],426 nM
14,GUUACGCAUGGAAGGAGCGCACUCCGAUUGGACGACACAGUGAUGUUGUGGUUCGUUCGAAUGCAGGUAGGUCGCCAUGUGUAAC [Ex Arginine B K4 19],148 nM
15,CUCAAACCGUGGGCAUUUCGCAAAGUAGAUACCAGUCGCAACGGUGACCCUUGGCAGCUAGUAAAGUGAUGUUUUAUCGGCACCA [theeternabot_exclusion_KL_Theo_A_35],80.4 nM
16,AGCAUUAUCAGAAGGAGCGUGUAUAAUUCAAGAGAAUUGUUUUCGAGUGAUGUUCGUAAUACACAGGUAGGUCGCUGAUAUAGCA [JR_ExcArginiB_Sub001],258 nM

row,Sequence,apparent KD of K4 kissing-loop reporter
1,AAGGCCAGUGAUGUUGGCUUAACCUUCGAUACCAGAACCGAUCGUUUCCCUUGGCAGCGAACACAAUACCUCACAGCGUUAAGUA [theeternabot_sameState_KL_Theo_A_8],134 nM
2,GUACGCUGCUGAGUGAUGUUCAGCAAUCGCUAGGAUAUCGCUUUUGCGAGAAGGAGCGCAAUGAGGAAACUCGUUGUUAGUGUAC [FMN A 28],198 nM
3,UGGGUGUAGUGAUGUUAUAUAGAGAGUGAUACCAGUUUAGAGAGGAACCCUUGGCAGCAUAGAAGAGUAUCAUUGGAGGAGGAGG [ExTheophyl.Aw],505 nM
4,GCAGACCGCAGUGAUGUUGCGAAAUCGGAAGGAGCGCGUGAAAACGCAGGUAGGUCGCCGACACAGGGAUUAUAACCCUGUUUGC [Arginine A K4 16],196 nM
5,GAGCCAGAGGUUGCUGCGGGUUCCAGAGAUACCAGCCGUAUUGAAGGCCCUUGGCAGCUCGAGUGAUGUUCGAGCCGCCUCUGAC [Isquleorve],104 nM
6,UUCUUGAUGGAAACAUCGAGAAUUACUGAUACCAGUAUCGAUAGAUACCCUUGGCAGCAGAAUCAGUAAUAACGAGUGAUGUUCG [Ex Theophylline A K4 4],254 nM
7,AAGAGCUAGGCGGCCGCCACUAGUUGUGAACACGUACAAGCCAGUGAUGUUGGUAUGAUGGACGGUAGGACCGGGCCUAGCUGAA [Exclusion - Tryptophan B (Freestyle 14)],271 nM
8,CAUUCAGUGAUGUUGGAAGGCGAGCGGGAUACCAGCGGAGACUCACGCCCUUGGCAGCCCACAUAUCCCAGGUAGAUAAUAGUUC [Same State - Theophylline A (Freestyle 6)],139 nM
9,AGACCUCAGUGAUGUUGAGGUAACACUGAUACCAGCGACUUAAUUCGCCCUUGGCAGCAGUCCACCGAGGUAUCUGAUUAGGUCA [#24 K4 Theophylline A Exclusion],173 nM
10,AGAACUGUCUGGGAUACCAGCCGAGGAGUGAUGUUCCGGCUCGACGAAACGUCGAGCUACGGCCCUUGGCAGCUCAGACAGUUCA [#22 K4 Theophylline B Same State],639 nM
11,GCCAGAGCGCGAAGGAGCGCCGUGACAGGUUGCUGCCGUGGGCAGUGAUGUUGCUCAAUCUGGCAGGUAGGUCGCGUGCUCUGGC,219 nM
12,UCCUUUUUUGCCAGUGAUGUUGGACAGGAAGGAGCGGGCAUAAGCCCAGGUAGGUCGCCUGUCAACUUUCUUAUAGCCCUAAGGU [Edveza],226 nM
13,UAUUAAUUGACGGCCGCCACUAUUGUGAUUUAUUUGUUUGAGUGAUGUUUUGAUGUUUGAUUUUGUAGGACCGGGUUAUGUGUUA [zwzcmullin],768 nM
14,AGAUUCGACACGGCCGCCACUCGUGGUGGAUUAUCCUAUGUAAGACAUGAGUGAUGUUCAUGUACGAGGACCGGGUGUUGAGUCU [KL-XTryp-B5 #analogue],403 nM
15,GUUAUGGACCUUUUGAUCGUUCGUAGCGAUACCAGACAAUGGGCAGUCCCUUGGCAGCGCUAAUUGAGUGAUGUUCAAACGUGCA [theeternabot_exclusion_KL_Theo_A_46],309 nM
16,AGAAGGAGACUUGCAACGACUCCUUCAGACUAGGAUAUCAGGAAACUGAGAAGGAGUCUACUUGCAGUGAUGUUGCAAGAAUAAU [[F]''-[K]'-[F]'-[F1]-[F2]-[K1]-[K2]_Design3],147 nM

# Same assay, conditions: Eterna round: R107; input ligand: none
row,Sequence,apparent KD of K4 kissing-loop reporter
1,UCCGGUCGGUGAGCCAGUGAUGUUGGUCAGAAGGAUAUCUGGCAACAGAGAAGGUCUGCAUCAGCCUAGAUAUCCUGGCGACCGG,79 nM
2,CAUACGCAUGGAGGAUAUGAGAUUACUCAUGUCAUUUAAUAUUCUCAGUGAUGUUGAGAUUUUGGCUCAGAAGGCCAUGUGUAUG [Ex FMN B 18],534 nM
3,CUCGUGGGUUUGAGAGGGCUUGUGGGAAGUGAGGAUAUUUAGGGAGAAAGAAGGCACUAUAGAAUAUAGUGAUGUUAUAUAUGGG [SSFMNA.Q],264 nM
4,CCGUAGAACGGAAGGAGCGCCAUAGAUAAGAAUUCCGUAAGUGAGUGAUGUUCACACAAAUGGCAGGUAGGUCGCCGUUAUUUAG [Arg B Ex t5],220 nM
5,UAACUGCAGUGAUGUUGCAGAUGUCCUGACUAGGAUAUCAGGAAACUGAGAAGGAGUCCCUUCUACACUGCAGAGAAGGAGGACA [[K1]-[K2]-[F1]'-[F1]-[F2]-[F2]'-[K]'-[F]''_Design1],145 nM
6,UCUGUUGUAUAUGAUACCAGCAGUGAGAGACGAGAAGUAUAGUGAUGUUAUAUGAGAGAAUGCCCUUGGCAGCGUGUGCGUGUGG [SSTheophylB.aB],95.4 nM
7,ACAUCGGUUGAGAGUGAUGUUCCUUGUGUUCGAGGACCGGUACGGCCGCCACUCGGGUAGAAAAUAACAGAUGUGUUUCAUUUUU [BDazzled - #17 SS Tryptophan A],141 nM
8,GGAUGGUAGGCGGCCGCCACUAAAACAGAACACAUACAAGCCAGUGAUGUUGGUAUGAUGGUGUAUAGGACCGGGCCUAGAUAGA [Exclusion - Tryptophan B (Freestyle 5)],199 nM
9,CUUAUGGAGUGUCGUACCGGACACUGGGAAGGAGCGCAAUUCUUUGCAGGUAGGUCGCCCAGUGAUGUUGGGUGGCGCUGUCGAA [Xebeor],181 nM
10,ACGUCUCGUAAACUCGUGGUUUCGAUCGAUACCAGUAGCGAGAGUUACCCUUGGCAGCGACAUGAGUGAUGUUCAUGUACGAAGA [KL-XTheoA2],93.1 nM
11,AAGUACACGAUAGUGUACACCUAGUGAUGUUAGGAUAUGCAGAUAUGCAGAAGGAACGAGUCAUCUGACAAUAGUCGGAUGACAA [FmnAX 8 #OpenEnded #K4Early],100 nM
12,ACUGUACCGGGAAGGAGCGUGAAUGAGAAUGGAUAUAGUGAUGUUAUGUAUACGAACGAAUCGCAGGUAGGUCGCCCGGAUCCCU [SSArgB.aC],398 nM
13,AAGGGCUAGGCGGCCGCCACUGGUUGUGAACACAUACGAGCCAGUGAUGUUGGUAUUGUGUGCGGCAGGACCGGGCCUAGCCGAA [Exclusion - Tryptophan B (Freestyle 23)],346 nM
14,AGACUACUGACAGGAUAUAACAUCCUGGUCGUAUACCGAAAGGUAUACGAUUUCCUUCUAGUGAUGUUAGAAGGGUCGGUAGUCA [Omei KL FMN B Exc B v14],90.7 nM
15,AAAGUGUCAGCACGAGUGAUGUUCGACGAUACCAGCCUCGAUAGAGGCCCUUGGCAGCGUAAACCAAGGGCUGGCACAAAAUAAA [#SwitchBubble 6 #K4Early],1350 nM
16,GUAUAAAUAUAAGGAUAUGCAGGGAAAGUAAGAAUGGGUUAGUUGAACUUUAGUGAUGUUGAGGAAGCAGAAGGUGUAUAUGUGU [FMN B same state],381 nM
17,GGAUAGGACAGAGGAUAUCCUUGAGGCAAGAAACUUGUCUCUAAAAGGAUGAACCUAGUGAUGUUAGGAGAAGGCUGUCCUAUCG [FmnBX 13 - #SwitchBubble #StaticStem #Palindromic],98.2 nM
18,CCUUCUCUUGAUAGUGAUGUUAUCAAGGGCAAGGAUAUCAUCUCAAUGAGAAGGUGUCCUUGAUAACAUGGAGGUCUGAAACAGA [Omei KL FMN A Exc C v4],209 nM
19,AUUUAUGUAUCAGGAUAUUAGUGAUGUUUGUUUUUGUUAGUGAUGUUGAUAUUUGUUUUAUGUAUUUAAGAAGGGAUUGAGAUGU [wwewmullin],34.7 nM
20,AUGCUUAUAAUAACACUAUAUACAACUGAAGGAGCGACAAUAAAGUCAGGUAGGUCGCAGAAUAAAUGAGUGAUGUUCAUUUUUA [JR_ExcArginiA_Sub010],113 nM
21,AAGUGUGUGGCGGCCGCCACUAGAAUCCAGUGAUGUUGGAGAUAUCUCGUAAGAGAUAUCCGCCAUAGGACCGGGCCAUAUAGAA [Same State - Tryptophan B (Freestyle 15)],1260 nM
